Measurements: US20160137739A1 (KINIKSA PHARMACEUTICALS, published 2016)
Residue numbers refer to the chain shown, from its start. In names and notes the source's numbering stands.

T1: human OSMR expressed on cells (human, UniProt Q99650 28-979)
T1 sequence: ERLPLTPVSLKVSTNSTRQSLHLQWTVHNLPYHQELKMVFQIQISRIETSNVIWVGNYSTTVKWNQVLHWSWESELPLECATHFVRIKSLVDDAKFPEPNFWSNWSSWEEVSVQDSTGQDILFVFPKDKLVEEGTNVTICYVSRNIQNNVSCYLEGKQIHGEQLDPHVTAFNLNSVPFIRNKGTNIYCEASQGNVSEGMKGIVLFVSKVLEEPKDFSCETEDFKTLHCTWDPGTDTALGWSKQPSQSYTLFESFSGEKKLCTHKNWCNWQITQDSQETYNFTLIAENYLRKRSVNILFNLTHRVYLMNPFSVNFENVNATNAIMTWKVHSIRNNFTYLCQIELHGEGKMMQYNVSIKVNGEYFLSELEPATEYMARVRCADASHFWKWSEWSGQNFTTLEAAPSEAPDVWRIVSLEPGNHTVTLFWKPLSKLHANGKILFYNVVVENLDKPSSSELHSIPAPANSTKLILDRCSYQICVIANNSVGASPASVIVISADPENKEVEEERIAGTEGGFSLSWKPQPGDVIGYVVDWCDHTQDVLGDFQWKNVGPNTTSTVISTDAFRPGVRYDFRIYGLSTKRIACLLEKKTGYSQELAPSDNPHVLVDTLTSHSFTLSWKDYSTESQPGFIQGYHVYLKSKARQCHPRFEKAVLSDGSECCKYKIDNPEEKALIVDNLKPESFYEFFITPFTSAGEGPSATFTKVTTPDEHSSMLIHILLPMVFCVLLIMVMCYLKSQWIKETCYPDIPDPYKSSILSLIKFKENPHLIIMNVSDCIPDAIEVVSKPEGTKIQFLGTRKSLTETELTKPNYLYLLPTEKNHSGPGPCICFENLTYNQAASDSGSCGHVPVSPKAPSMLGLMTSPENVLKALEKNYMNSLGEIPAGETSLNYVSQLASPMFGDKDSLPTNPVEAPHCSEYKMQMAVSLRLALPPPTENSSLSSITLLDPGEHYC

T2: cynomologus OSMR expressed on cells (cynomologus monkey (Macaca fascicularis), UniProt Q99650 28-978 (human entry))
T2 chain: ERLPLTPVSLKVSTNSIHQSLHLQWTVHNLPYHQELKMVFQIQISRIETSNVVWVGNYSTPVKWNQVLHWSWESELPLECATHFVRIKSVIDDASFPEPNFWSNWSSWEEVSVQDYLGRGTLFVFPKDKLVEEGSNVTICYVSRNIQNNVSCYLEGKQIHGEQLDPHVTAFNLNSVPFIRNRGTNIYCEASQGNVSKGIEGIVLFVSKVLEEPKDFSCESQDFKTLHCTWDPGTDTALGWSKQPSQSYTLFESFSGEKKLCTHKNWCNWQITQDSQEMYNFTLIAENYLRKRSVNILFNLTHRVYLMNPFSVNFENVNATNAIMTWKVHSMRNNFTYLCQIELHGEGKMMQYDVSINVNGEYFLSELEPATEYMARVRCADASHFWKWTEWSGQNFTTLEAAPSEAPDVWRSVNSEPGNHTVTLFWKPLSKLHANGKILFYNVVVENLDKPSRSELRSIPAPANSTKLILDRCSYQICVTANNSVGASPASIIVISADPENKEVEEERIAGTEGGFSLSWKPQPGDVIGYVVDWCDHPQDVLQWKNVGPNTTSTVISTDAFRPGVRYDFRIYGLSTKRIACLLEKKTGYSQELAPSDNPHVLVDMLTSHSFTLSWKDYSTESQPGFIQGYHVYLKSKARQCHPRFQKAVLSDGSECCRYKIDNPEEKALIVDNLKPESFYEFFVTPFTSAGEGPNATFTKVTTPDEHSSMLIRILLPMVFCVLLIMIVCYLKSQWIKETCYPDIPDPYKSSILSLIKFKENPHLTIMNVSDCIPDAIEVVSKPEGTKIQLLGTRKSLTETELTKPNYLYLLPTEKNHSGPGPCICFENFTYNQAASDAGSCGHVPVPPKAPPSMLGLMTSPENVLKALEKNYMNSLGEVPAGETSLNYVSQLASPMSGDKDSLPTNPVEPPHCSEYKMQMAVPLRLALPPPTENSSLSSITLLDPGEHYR

T3: OSMR (UniProt Q99650 28-740)
T3 sequence (looked up): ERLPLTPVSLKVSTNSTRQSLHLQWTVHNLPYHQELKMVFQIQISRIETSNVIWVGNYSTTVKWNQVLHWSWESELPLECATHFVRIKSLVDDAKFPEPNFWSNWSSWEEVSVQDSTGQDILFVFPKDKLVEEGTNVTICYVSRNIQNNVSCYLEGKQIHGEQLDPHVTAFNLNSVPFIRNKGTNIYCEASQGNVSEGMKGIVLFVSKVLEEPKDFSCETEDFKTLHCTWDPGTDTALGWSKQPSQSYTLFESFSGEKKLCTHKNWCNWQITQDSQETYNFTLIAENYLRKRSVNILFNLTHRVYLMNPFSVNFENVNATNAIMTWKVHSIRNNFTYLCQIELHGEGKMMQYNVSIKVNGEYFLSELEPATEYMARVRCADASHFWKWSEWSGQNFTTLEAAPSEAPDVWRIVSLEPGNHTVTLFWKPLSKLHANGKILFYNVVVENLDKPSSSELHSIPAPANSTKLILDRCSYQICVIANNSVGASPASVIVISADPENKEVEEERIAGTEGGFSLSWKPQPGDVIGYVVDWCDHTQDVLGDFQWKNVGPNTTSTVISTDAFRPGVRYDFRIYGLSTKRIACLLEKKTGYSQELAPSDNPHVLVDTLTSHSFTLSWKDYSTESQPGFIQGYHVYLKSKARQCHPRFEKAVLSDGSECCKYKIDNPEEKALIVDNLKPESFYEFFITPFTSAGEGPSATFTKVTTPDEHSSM

T4: Soluble OSMR (UniProt Q99650 28-740)
T4 sequence (looked up): T3 sequence (looked up)

T5: hOSMR.FH (human, UniProt Q99650 28-740)
T5 construct: also called huOSMR
T5 sequence: T3 sequence (looked up)

B1: Ab1 (antibody, human IgG2, lambda, V domains shown)
VH: QVQLVQSGAEVKKPGASVKVSCKASGYTFTSYDINWVRQATGQGLEWMGWMNPNSGNTDYAQKFQGRVTMTRNISISTAYIELSSLRSEDTAVYYCARDMVAANTDYYFYYGMDVWGQGTTVTVSS
VL: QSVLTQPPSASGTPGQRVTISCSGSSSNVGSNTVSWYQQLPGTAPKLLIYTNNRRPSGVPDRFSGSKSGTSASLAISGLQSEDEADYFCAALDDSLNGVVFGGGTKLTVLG
notes: also called Ab1 IgG2 WT; antibody 1
B2: Ab2 (antibody, human IgG2, lambda, V domains shown)
VH: B1 VH with D33E, N57Y, D59G, I74T, I81M, L83M, M100I
VL: QSVLTQPPSASGTPGQRVTISCSGSNSNIGSNTVNWYHQLPGTAPKLLIYNINKRPSGVPDRFSGSKSGSSASLAISGLQSEDEADYYCSTWDDSLDGVVFGGGTKLTVLG
notes: also called Ab2 IgG2 WT; antibody 2
B3: Ab3 (antibody, human IgG2, kappa, V domains shown)
VH: QVHLVQSGAEVKKPGASVKVSCKASGYTFTSYGISWVRQAPGQGLEWMGWLSTYSGNTNYAQKLQGRVTMTTDTSTSTAYMELRSLRSDDTAVYYCARGNFYYYGMDVWGQGTTVTVSS
VL: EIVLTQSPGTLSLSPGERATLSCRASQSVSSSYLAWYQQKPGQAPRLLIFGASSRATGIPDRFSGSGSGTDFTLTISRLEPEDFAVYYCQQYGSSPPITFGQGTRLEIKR
notes: also called antibody 3
B4: Ab1 N73D IgG4P agly/IgG1 (antibody, V domains shown)
VH: B1 VH with N73D
VL: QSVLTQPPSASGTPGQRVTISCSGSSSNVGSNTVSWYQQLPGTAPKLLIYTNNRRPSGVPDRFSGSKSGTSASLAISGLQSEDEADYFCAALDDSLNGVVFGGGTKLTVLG
B5: Ab1 N73D IgG2 (antibody, V domains shown)
VH: B1 VH with N73D
VL: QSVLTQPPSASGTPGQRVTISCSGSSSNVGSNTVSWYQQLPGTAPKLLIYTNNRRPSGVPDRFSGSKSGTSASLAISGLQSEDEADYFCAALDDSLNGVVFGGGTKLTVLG
notes: also called Ab1 version 2
B6: Ab2 N73D IgG4P agly/IgG1 (antibody, V domains shown)
VH: B1 VH with D33E, N57Y, D59G, N73D, I74T, I81M, L83M, M100I
VL: B2 VL
B7: Ab2 N73D IgG2 (antibody, V domains shown)
VH: B1 VH with D33E, N57Y, D59G, N73D, I74T, I81M, L83M, M100I
VL: B2 VL
notes: also called Ab2 version 2

What follows are binders tested against T1, human OSMR expressed on cells (assay: cell-based or functional assay).

Question: What does the source list for B1?
Answer: IC50, IL-31-induced proliferation of BaF3 cells expressing human IL-31RA4 and OSMR: 0.0352 nM; IC50, OSM-induced STAT3 nuclear translocation in primary normal human lung fibroblasts: 0.157 nM

Question: For B2, which “IC50, IL-31-induced proliferation of BaF3 cells expressing human IL-31RA4 and OSMR” value is on record?
Answer: The value was 0.0276 nM.

Question: And the “IC50, OSM-induced STAT3 nuclear translocation in primary normal human lung fibroblasts” value?
Answer: Its value is 0.252 nM.

Question: Which results are given for B3?
Answer: IC50, IL-31-induced proliferation of BaF3 cells expressing human IL-31RA4 and OSMR: 0.78 nM; IC50, OSM-induced STAT3 nuclear translocation in primary normal human lung fibroblasts: 1.35 nM

Molecular target: T2, cynomologus OSMR expressed on cells
Test: cell-based or functional assay

Question: How did the “IC50, cyno IL-31-induced proliferation of BaF3 cells overexpressing cyno IL-31RA and OSMR” value (shortened to “IC50, cyno IL-31-induced proliferation”) turn out when B1 was run?
Answer: The value was 0.225 nM.

Question: And the “IC50, cyno OSM-induced STAT3 nuclear translocation in a primary kidney epithelial cell line” value (from here on “IC50 … in a primary kidney epithelial cell line”)?
Answer: The value was 1.26 nM.

Question: For B2, which “IC50, cyno IL-31-induced proliferation” value is on record?
Answer: Its value is 0.0293 nM.

Question: And the “IC50 … in a primary kidney epithelial cell line” value?
Answer: Its value is 0.518 nM.

Question: With B3 as the binder, how does the “IC50, cyno IL-31-induced proliferation” value read?
Answer: The value was 6.87 nM.

Question: What about the “IC50 … in a primary kidney epithelial cell line” value of the same binder?
Answer: Its value is 1.24 nM.

Each binder was assayed against T3, OSMR (assay: Capture ELISA (avidity-less format)).

Question: How did the EC50 turn out when B1 was run?
Answer: The EC50 was 10.2 nM.

Question: How did the EC50 turn out when B4 was run?
Answer: Its EC50 is 2.86 nM.

Question: For B5, which EC50 is on record?
Answer: Its EC50 is 4.85 nM.

Question: Which EC50 does the source give for B6 here?
Answer: The EC50 was 1.61 nM.

Question: B7 was tested. Which EC50 did it give?
Answer: Its EC50 is 5.49 nM.

Question: Which EC50 does the source give for B2 here?
Answer: Its EC50 is 3.63 nM.

The binders below were run against T3, OSMR (assay: Sandwich ELISA (solution phase format)).

Question: Which EC50 does the source give for B1 here?
Answer: Its EC50 is 0.581 nM.

Question: Which EC50 does the source give for B4 here?
Answer: Its EC50 is 0.05 nM.

Question: Which EC50 does the source give for B5 here?
Answer: The EC50 was 0.359 nM.

Question: For B6, which EC50 is on record?
Answer: The EC50 was 0.064 nM.

Question: How did the EC50 turn out when B7 was run?
Answer: The EC50 was 0.343 nM.

Question: For B2, which EC50 is on record?
Answer: Its EC50 is 0.366 nM.

What follows are binders tested against T3, OSMR (assay: Direct ELISA (solid state avidity format)).

Question: With B1 as the binder, how does the EC50 read?
Answer: The EC50 was 0.184 nM.

Question: B4 was tested. Which EC50 did it give?
Answer: The EC50 was 0.0626 nM.

Question: Which EC50 does the source give for B5 here?
Answer: The EC50 was 0.0728 nM.

Question: With B6 as the binder, how does the EC50 read?
Answer: Its EC50 is 0.0558 nM.

Question: With B7 as the binder, how does the EC50 read?
Answer: Its EC50 is 0.179 nM.

Question: B2 was tested. Which EC50 did it give?
Answer: Its EC50 is 0.182 nM.

Each binder was assayed against T4, Soluble OSMR (assay: BIAcore, antibody immobilized on CM4 chip, soluble OSMR analyte).
Protocol: Binding studies were performed using the BIAcore method. Antibodies containing the variable regions of Ab1 or Ab2 (or the N73D variant of Ab1 or Ab2) with different Fe regions were immobilized on a CM4 chip (GE lifesciences) as per manufacturer's protocols. Soluble OSMR was used as the analyte.

Question: For B1, which Kd is on record?
Answer: Its Kd is 0.913 nM.

Question: What about the koff of the same binder?
Answer: The koff was 0.00015 s⁻¹.

Question: What about the kon of the same binder?
Answer: Its kon is 164000 M⁻¹ s⁻¹.

Question: With B5 as the binder, how does the Kd read?
Answer: The Kd was 0.675 nM.

Question: What about the koff of the same binder?
Answer: Its koff is 0.000168 s⁻¹.

Question: And the kon?
Answer: The kon was 249000 M⁻¹ s⁻¹.

Question: How did the Kd turn out when B7 was run?
Answer: Its Kd is 0.289 nM.

Question: What about the koff of the same binder?
Answer: Its koff is 4.99e-05 s⁻¹.

Question: And the kon?
Answer: The kon was 173000 M⁻¹ s⁻¹.

Question: Which Kd does the source give for B2 here?
Answer: The Kd was 1.01 nM.

Question: What about the koff of the same binder?
Answer: Its koff is 0.000189 s⁻¹.

Question: And the kon?
Answer: Its kon is 188000 M⁻¹ s⁻¹.

What follows are binders tested against T5, hOSMR.FH (assay: SPR, Biacore 3000, antibody captured by anti-human IgG, hOSMR.FH analyte, 25 C).
Protocol: Biosensor analysis was conducted at 25 C in a HBS-EP+(1×) buffer system (10 mM HEPES pH 7.4, 150 mM NaCl, 3.0 mM EDTA, 0.05% Surfactant P20) using a Biacore 3000 optical biosensor equipped with a CM5 sensor chip. All reagents were kept at 8° C. prior to injection. […] Antibodies 1-3 were diluted (0.25 to 0.5 μg/mL) in running buffer. The antibodies were injected (15 μL) over Flow Cell 2 at a flow rate of 10 μL/min. About 50 RU of antibody was captured. […] Samples were run in duplicate and in random order.
Buffer analyte blanks (0 nM hOSMR) were injected before, in-between, and after sample injections. Antibodies were injected (15 μL) over Flow Cell 2 at a flow rate of 10 μL/min. About 50 RU of antibody was captured. […] The samples were run in triplicate.
Data was analyzed with Scrubber 2.0 software as follows. Data from Flow Cell 2 was subtracted from the data from Flow Cell I (blank reference). The reference subtracted data (2-1) was then subtracted (double referenced) from the nearest 0 nM concentration data. The double referenced long dissociation data was fit to a 1:1 binding model to determine the dissociation rate constant (kd). This dissociation rate constant was used as a fixed parameter to fit the double referenced short dissociation data to a 1:1 binding model in order to determine the association rate constant (ka) and the equilibrium dissociation constant (Kd).

Question: What does the source list for B1?
Answer: Kd: 0.221 nM; koff: 9.95e-05 s⁻¹; kon: 447000 M⁻¹ s⁻¹

Question: B2 was tested. Which Kd did it give?
Answer: The Kd was 0.0327 nM.

Question: And the koff?
Answer: Its koff is 1.81e-05 s⁻¹.

Question: What about the kon of the same binder?
Answer: The kon was 550000 M⁻¹ s⁻¹.

Question: B3 was tested. Which Kd did it give?
Answer: Its Kd is 1.08 nM.

Question: What about the koff of the same binder?
Answer: Its koff is 0.000102 s⁻¹.

Question: And the kon?
Answer: Its kon is 94700 M⁻¹ s⁻¹.
